For orientation: clearance means the volume of plasma or blood freed of the substance per unit of time. For orientation: half-life means the time in which the quantity being followed falls by half. Read a low half-life as rapid decline.

Data set [1] in a line: Buffer screening for solution stability of Conjugate 57. It counts as physicochemical. Conditions: acetate buffer at pH range of 4.0 to 4.8, compared with citrate and phosphate buffers. The text has this:
Conjugate 57 is a free flowing powder. Previusly studies have found the stability of Conjugate 57 is dependent on the pH of the solution.

Data set [2] in a line: Pharmacokinetics of Conjugate 57 in patients. It counts as in vivo, human. How it is done: (§1) In previous clincial studies, Conjugate 57 was administered via IV on an every 3 week cycle ([…]). The dose of Conjugate 57 may be 1.0 mg, 2.0 mg, 4.0 mg, 8 mg, 12 mg, 15 mg or MTD, which has been determined to be 18 mg. […] BSA (meters squared), as used herein, can be calculated as the following: the square root of patient height in centimeters times patient weight in kilograms divided by 3600. As shown in FIG. 1A and FIG. 1B, a trend was evident between dose normalized exposure (AUC0-8 and Cmax) vs BSA for Conjugate 57. […] The majority of toxicity observed was at dose levels greater than 8.8 mg/m^2. Based on these unexpected results, that starting dose of Conjuate 57 for patients was changed from 15 mg to 8.8 mg/m^2 or less than 8.8 mg/m^2. Patients received dose levels such as 8.8 mg/m^2, 8.75 mg/m^2, 8.6 mg/m^2, 8.4 mg/m^2, 8.3 mg/m^2, 7.9 mg/m^2, 7.5 mg/m^2, and 6.7 mg/m2.

A short description of data set [3]: Clinical studies of Conjugate 57 given IV: dose level, benefit and toxicity. It counts as in vivo, human. As for the experimental part:
as §1
The risk of over exposure of high Cmax levels in smaller pateints (<1.6 m^2) was reduced. The risk of early discontinuation due to intolerability was reduced and the duration of theray was increased.

[4] abbreviates: human, in vivo, intravenous, in a patient.
The mark [5] stands for this setting: patients, dose per body surface area.

On to `COc1cc2cc(c1Cl)N(C)C(=O)C[C@H](OC(=O)[C@H](C)N(C)C(=O)CCSSC[C@H](NC(=O)[C@@H]1CSSC[C@H](NC(=O)[C@H](N)Cc3ccccc3)C(=O)N[C@@H](Cc3ccc(O)cc3)C(=O)N[C@H](Cc3c[nH]c4ccccc34)C(=O)N[C@@H](CCCCN)C(=O)N[C@@H]([C@@H](C)O)C(=O)N1)C(N)=O)[C@]1(C)O[C@H]1[C@H](C)[C@@H]1C[C@@](O)(NC(=O)O1)[C@H](OC)/C=C/C=C(\C)C2` [Conjugate 57], for which the “stability in buffered solution” value in data set [1] is listed as “most stability”. In data set [2] (setting [4]), this molecule had a clearance of 318 mL/min and a half-life of about 1.8 h. In data set [2] (patients, FIG. 1A and FIG. 1B), the “exposure (dose normalized AUC0-8 and Cmax) vs body surface area” value is given as “correlateds with body surface area (BSA)”. In data set [3] (IV, every 3 week cycle, flat dose, previous clinical studies), this molecule registered an MTD of 18 mg. In data set [3] (patients), the “effect on efficacy of changing from flat doses to doses based on body surface area” value is “no negative effect on efficacy”. Moreover, in data set [3] (setting [5]), the “dose levels at which maximum benefit was observed” value is on record as at most 8.8 mg/m^2 and the “dose levels at which the majority of toxicity was observed” value is given as “greater than 8.8 mg/m^2”.

Source of the values: patent US20220257766A1, “SSTR-TARGETED CONJUGATES AND FORMULATIONS THEREOF” (TVA (ABC), LLC, priority 2019, published 2022).
